# Test results reported in PMC11626772.
# Target: N-terminally truncated type IV pilin from P. aeruginosa strain P1 (ΔP1) (Pseudomonas aeruginosa strain P1)
# Assay: SEC-MALS; 23 mg ml^-1 ΔP1 with trigger solution (10 mM Tris, 300 mM NaCl, 1 mM EDTA, 1 mM DTT, 1 M MPD pH 7.4) at 10:1 (v:v) protein:hydrophobe, 96 h at room temperature with nutation; then SEC-MALS as for the untreated sample; monomer to dimer
substance,measurement,value
N-terminally truncated type IV pilin from P. aeruginosa strain P1 (ΔP1) (domain or fragment),mass fraction of the dimer,9.1%
same,stoichiometry N,2
